The text below walks through data of article PMC6884526 (2019).

The target of this experiment is MBP-TrkB-454-821 (Rattus norvegicus (Rat), UniProt Q63604). As to the kind of experiment: pull-down (MBP-TrkB on amylose resin, GST-ActI-SIPA1L2 prey, immunoblot). (A western blot detects proteins with antibodies after separation by electrophoresis.)
Sequence of MBP-TrkB-454-821 (Q63604 454-821): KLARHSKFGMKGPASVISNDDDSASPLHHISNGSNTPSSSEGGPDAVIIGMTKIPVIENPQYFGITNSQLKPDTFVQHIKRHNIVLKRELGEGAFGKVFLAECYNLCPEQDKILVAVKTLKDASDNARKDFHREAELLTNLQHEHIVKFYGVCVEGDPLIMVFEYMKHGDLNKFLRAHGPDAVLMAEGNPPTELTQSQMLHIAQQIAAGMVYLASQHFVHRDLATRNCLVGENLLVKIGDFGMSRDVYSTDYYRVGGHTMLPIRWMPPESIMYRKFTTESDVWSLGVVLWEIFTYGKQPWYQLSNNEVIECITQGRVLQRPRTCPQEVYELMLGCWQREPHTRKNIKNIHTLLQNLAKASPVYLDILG

B1: GST-ActI-SIPA1L2-1-624 (protein)
chain: MSDPRPSQAEKHKLGRAASKFKDPSRAMQSDDYFARKFKAINGSMGPATLNTSSLSEGGGGGGGPANGTPAVPKMGVRARVSEWPPKKDCSKDLACKTLWESRSQSSYESATSIIQNGQNDQVDRQQEEQLDLDFVEAKYTIGDIFVHSPQRGLHPIRQRSNSDITISDIDTEDVLDQHAVNPNTGAALHREYGSTSSIDRQGLSGENVFAMLRGYRIESYDPKVTSSFGFPDFFPCDTAISPSLHAAAQISRGEFVRISGLDYMDGGLLMGRDRDKPFKRRLKSESVETSLFRKLRTVKSEHETFKFTSDLEEGRLDRGIRPWSCQRCFAHYDVQSILFNINEAMATRASVGKRKNITTGASAASQTPVPVGPAGGCESPLGSKEDLNAKENPDADEGDGKSNDLVLSCPYFRNETGGEGDRRIALSRANSASFSSGESCSFESSLSSHCTNAGVSVLEVPRENQPIHREKVKRYIIEHVDLGAYYYRKFFYGKEHQNYFGIDENLGPVAVSIRREKVEDPREKEGSQFNYRVAFRTSELTTLRGAILEDAVPSTARHGTARGLPLKEVLEYVIPELSIPCLRQAANSPKVPEQLLKLDEQGLSFQHKIGILYCKAGQSTEEE
Take B1: the binding result is given as “binds”.
